Test [1] has as its target T1, huCB1 nanodisc (CB1-ND) (human, UniProt P21554 99-414).
T1 construct: The His-tagged CB1 is embedded in a POPC lipid nanodisc with MSP1D1 scaffold protein (molar ratio 480:8:1); also called huCB1-ND; #CB1-008
The experiment in a line: flow cytometry, yeast-displayed Fab, 0.2 nM CB1-ND, after background subtraction.

Test [2] addresses T2, GFP-fused huCB1 in styrene maleic acid lipoparticles (CB1-SMALP-GFP) (human, UniProt P21554 1-472).
T2 construct: Prepared as described in Luna V. et al. 2018; also called huCB1-GFP-SMALP; GFP-tagged huCB1-SMALP; not shown: GFP fused to huCB1
Nature of the test: flow cytometry, yeast-displayed Fab, 2.5 nM CB1-SMALP-GFP, after background subtraction.

The target in test [3] is empty nanodisc (Empty ND). Nature of the test: flow cytometry, yeast-displayed Fab, 50 nM Empty ND, after background subtraction. On the technique in general: In flow cytometry, cells or beads pass a laser one at a time.
empty nanodisc (Empty ND), sequence (P02647 79-267): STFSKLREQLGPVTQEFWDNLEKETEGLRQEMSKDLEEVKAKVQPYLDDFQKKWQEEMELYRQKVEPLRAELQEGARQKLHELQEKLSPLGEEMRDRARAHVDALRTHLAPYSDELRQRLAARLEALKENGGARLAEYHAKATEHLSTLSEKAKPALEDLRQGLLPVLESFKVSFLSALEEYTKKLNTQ
For test [4], the target named is T3, empty-ND (nanodisc without CB1).
T3 construct: its only protein is the nanodisc scaffold; also called Empty Nanodisc
The experiment in a line: flow cytometry, yeast-displayed IgG, binding/display ratio.

The target of test [5] is T4, His-tagged huCB1-ND (human CB1 in nanodisc) (human).
T4 construct: CB1 construct of Cell 167(3) (2016) 750-762 expressed in Sf9 cells; POPC:MSP1D1:CB1 480:8:1; also called CB1-nanodisc; huCB1-Nanodisc; not shown: histidine purification tag
T4 sequence (P21554 99-414): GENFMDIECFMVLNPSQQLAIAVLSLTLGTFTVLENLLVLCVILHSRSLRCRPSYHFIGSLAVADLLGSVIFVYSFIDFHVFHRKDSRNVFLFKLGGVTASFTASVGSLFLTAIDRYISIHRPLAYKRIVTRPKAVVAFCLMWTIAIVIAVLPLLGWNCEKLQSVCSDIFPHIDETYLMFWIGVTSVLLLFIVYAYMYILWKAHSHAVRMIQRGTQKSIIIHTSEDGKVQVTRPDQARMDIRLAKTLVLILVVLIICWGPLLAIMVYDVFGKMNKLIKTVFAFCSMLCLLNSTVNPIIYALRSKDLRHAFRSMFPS
Described as above.

The target of test [6] is T5, GFP-fused huCB1-SMALP (human CB1 in styrene maleic acid lipoparticles) (human, UniProt P21554 1-472).
T5 construct: Prepared as in Luna V. et al. 2018; also called huCB1-GFP-SMALP; wtCB1-SMALP; not shown: GFP fusion
T5 sequence (P21554 whole entry, the tested form may be a part): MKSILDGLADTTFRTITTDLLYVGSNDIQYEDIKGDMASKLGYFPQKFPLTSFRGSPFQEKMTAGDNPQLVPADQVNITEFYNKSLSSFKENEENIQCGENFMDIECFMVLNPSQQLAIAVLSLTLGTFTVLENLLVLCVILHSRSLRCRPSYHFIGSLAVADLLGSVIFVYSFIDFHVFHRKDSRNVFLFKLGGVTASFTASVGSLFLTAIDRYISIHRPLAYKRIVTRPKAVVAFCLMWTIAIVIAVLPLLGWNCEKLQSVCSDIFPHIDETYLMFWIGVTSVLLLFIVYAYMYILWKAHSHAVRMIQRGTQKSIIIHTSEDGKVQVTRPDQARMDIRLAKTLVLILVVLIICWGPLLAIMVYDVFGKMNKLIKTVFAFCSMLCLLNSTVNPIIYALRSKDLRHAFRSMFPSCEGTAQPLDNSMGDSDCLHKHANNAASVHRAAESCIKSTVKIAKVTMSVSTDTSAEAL
Nature of the test: flow cytometry, yeast-displayed IgG, GFP MFI.

Test [7] deals with T6, human cannabinoid receptor type 2 (CB2) (human, UniProt P34972 1-360).
T6 construct: also called huCB2; full length hu CB2
T6 sequence (P34972 whole entry): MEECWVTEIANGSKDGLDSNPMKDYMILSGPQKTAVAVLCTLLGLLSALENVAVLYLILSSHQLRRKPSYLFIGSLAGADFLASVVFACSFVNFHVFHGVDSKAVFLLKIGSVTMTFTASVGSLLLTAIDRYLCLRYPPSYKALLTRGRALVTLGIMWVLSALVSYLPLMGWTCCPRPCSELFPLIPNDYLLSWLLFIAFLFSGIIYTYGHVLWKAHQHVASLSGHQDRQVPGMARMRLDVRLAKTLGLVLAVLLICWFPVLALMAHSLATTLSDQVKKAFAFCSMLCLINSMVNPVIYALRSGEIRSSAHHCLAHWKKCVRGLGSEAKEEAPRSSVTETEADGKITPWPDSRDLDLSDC
Nature of the test: binding to huCB2, fold over mock (method not described).

Test [8] has as its target T7, mouse CB1 (mouse, UniProt P47746 1-473).
T7 construct: also called muCB1; murine CB1
The experiment in a line: binding to muCB1, fold over mock (method not described).

The target in test [9] is T6, human cannabinoid receptor type 2 (CB2). Nature of the test: fold over mock (Table 14).
The target in test [10] is T7, mouse CB1. The experiment in a line: fold over mock (Table 14).
Test [11] deals with T5, GFP-fused huCB1-SMALP (human CB1 in …). Nature of the test: flow cytometry, yeast-displayed IgG, GFP MFI. The source holds these as a separate data set.

T7 sequence (P47746 whole entry): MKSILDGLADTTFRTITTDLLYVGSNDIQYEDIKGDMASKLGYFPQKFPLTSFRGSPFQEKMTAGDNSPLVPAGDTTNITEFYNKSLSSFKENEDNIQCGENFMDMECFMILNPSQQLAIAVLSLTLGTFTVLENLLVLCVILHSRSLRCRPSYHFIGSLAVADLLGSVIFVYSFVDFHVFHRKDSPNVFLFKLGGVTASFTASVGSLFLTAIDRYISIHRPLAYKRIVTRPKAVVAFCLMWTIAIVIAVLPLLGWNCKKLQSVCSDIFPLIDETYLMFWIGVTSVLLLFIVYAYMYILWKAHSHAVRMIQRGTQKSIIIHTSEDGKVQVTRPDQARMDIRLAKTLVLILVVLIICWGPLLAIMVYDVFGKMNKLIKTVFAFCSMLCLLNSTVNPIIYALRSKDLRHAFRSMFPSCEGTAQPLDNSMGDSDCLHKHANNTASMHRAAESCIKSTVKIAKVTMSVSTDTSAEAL
T1 sequence (P21554 99-414 limits assumed): as the sequence (P21554 99-414) above
T2 sequence (P21554 whole entry, the tested form may be a part): as the sequence (P21554 whole entry, the tested form may be a part) above

B1: LIBC680800-1 (yeast-displayed Fab) (Fab, V domains shown)
VH: QVQLQESGPGLVKPSQTLSLTCTVSGGSIRRGGDYWAWIRQHPGKGLEWIGHIYQTGSTNYNPRFKGRATISVNTYKNQFSLKLSSVTAADTAVYYCARNYDTLTGYSYYYYGMDVWGQGTTVTVSS
VL: DIQMTQSPSSLSASVGDRVTITCRASQSISSYLNWYQQKPGKAPKLLIYSARALSSGVPSRFSGSGSGTDFTLTISSLQPEDFATYYCQQYRKFPLTFGGGTKVEIKR
B1: the “Relative binding fold change compared to LIBC528116 (Fab)” value (“Relative binding fold change” for short) in test [1] turned out to be 2.52 fold; in test [2], 1.76 fold; in test [3], 0.78 fold.

B2: LIBC527997-1 (antibody, IgG1, V domains shown)
VH: QVQLQESGPGLVKPSQTLSLTCTVSGGSIRRGGDYWAWIRQHPGKGLEWIGHIYQTGSTNYNPRFKGRATISVNTYKNQFSLKLSSVTAADTAVYYCARNYDTLTGYSYYYYGMDVWGQGTTVTVSS
VL: DIQMTQSPSSLSASVGDRVTITCRASQSISNYLNWYQQKPGKAPKLLIYAASSLHSGVPSRFSGSGSGTDFTLTISSLQPEDFASYYCQQYQSYPLTFGQGTKVEIKR
As for B2, the “50.0 nM Empty Nanodisc binding (relative to 10D10N35Y)” value in [4] came out at 0.44 fold. Moreover, the “0.200 nM huCB1-Nanodisc binding (relative to 10D10N35Y)” value in test [5] came to 6.38 fold. Further, in [6], the “100 nM huCB1-GFP-SMALP binding (normalized to 10D10N35Y)” value amounted to 6.63 fold. Moreover, the Fold over mock in [7] amounted to 0.8 fold; in test [8], 1 fold. Besides, the binding result in [9] and in [10] was “no binding” in each case.

B3: LIBC527814-1 (antibody, IgG1, V domains shown)
VH: QVQLQESGPGLVKPSQTLSLTCTVSGGSIRRGGDYWGWIRQHPGKGLEWIGHVYQTGSTKYNPSFKDRATISVNTYKNQFSLKLSSVTAADTAVYYCARNYDTLTGYSYYYYGMDVWGQGTTVTVSS
VL: DIQMTQSPSTLSASVGDRVTITCRASQSISNYLNWYQQKPGKAPKLLIYAASSLHSGVPSRFSGSGSGTDFTLTISSLQPEDFASYYCQQYQSYPLTFGQGTKVEIKR
As to B3, the “50.0 nM Empty Nanodisc binding (relative to 10D10N35Y)” value in test [4] was determined as 0.61 fold. Besides, in [5], the “0.200 nM huCB1-Nanodisc binding (relative to 10D10N35Y)” value is 6.49 fold. The “100 nM huCB1-GFP-SMALP binding (normalized to 10D10N35Y)” value in test [6] is 6.44 fold. Besides, the Fold over mock was found to be 0.9 fold in [7] and 1.2 fold in test [8]. Further, the binding result in test [9] and in test [10] was “no binding” throughout.

B4: LIBC680562-1 (yeast-displayed Fab) (Fab, V domains shown)
VH: QVQLQESGPGLVKPSQTLSLTCTVSGGSIRRGGDYWAWIRQHPGKGLEWIGHIYQTGSTNYNPRFKGRATISVNTYKNQFSLKLSSVTAADTAVYYCARNYDTLTGYSYYYYGMDVWGQGTTVTVSS
VL: DIQMTQSPSSLSASVGDRVTITCRASQSISSYLNWYQQKPGKAPKLLIYSARRLSSGVPSRFSGSGSGTDFTLTISSLQPEDFATYYCQQYAKSPITFGGGTKVEIKR
B4: the “Relative binding fold change” value in [1] was determined as 3.34 fold; in test [2], 1.94 fold; in [3], 0.68 fold.

B5: LIBC680574-1 (yeast-displayed Fab) (Fab, V domains shown)
VH: QVQLQESGPGLVKPSQTLSLTCTVSGGSIRRGGDYWAWIRQHPGKGLEWIGHVYYTGSTKYNPSFKDRATISVNTYKNQFSLKLSSVTAADTAVYYCARNYDTLTGYSYYYYGMDVWGQGTTVTVSS
VL: DIQMTQSPSSLSASVGDRVTITCRASQSISSYLNWYQQKPGKAPKLLIYGARRLGSGVPSRFSGSGSGTDFTLTISSLQPEDFATYYCQQYSSLPVTFGGGTKVEIKR
On to B5, for which the results for the “Relative binding fold change” value in [2] and in test [3] were 1.72 fold and 0.72 fold, respectively.

B6: LIBC680773-1 (yeast-displayed Fab) (Fab, V domains shown)
VH: QVQLQESGPGLVKPSQTLSLTCTVSGGSIRRGGDYWAWIRQHPGKGLEWIGHVYYTGSTNYNPRFKDRATISVNTYKNQFSLKLSSVTAADTAVYYCARNYDTVTGYSYYYYGMDVWGQGTTVTVSS
VL: DIQMTQSPSSLSASVGDRVTITCRASQSISSYLNWYQQKPGKAPKLLIYKARLLSSGVPSRFSGSGSGTDFTLTISSLQPEDFATYYCQQYSRLPLTFGGGTKVEIKR
On to B6, for which the “Relative binding fold change” value was 2.4 fold in test [1], 1.9 fold in test [2] and 0.75 fold in test [3].

B7: LIBC680812-1 (yeast-displayed Fab) (Fab, V domains shown)
VH: QVQLQESGPGLVKPSQTLSLTCTVSGGSIRRGGDYWGWIRQHPGKGLEWIGHVYQTGSTKYNPSFKDRATISVNTYKNQFSLKLSSVTAADTAVYYCARNYDTLTGYSYYYYGMDVWGQGTTVTVSS
VL: DIQMTQSPSSLSASVGDRVTITCRASQSISSYLNWYQQKPGKAPKLLIYSARRLSSGVPSRFSGSGSGTDFTLTISSLQPEDFATYYCQQYRSYPITFGGGTKVEIKR
As to B7, the “Relative binding fold change” value in test [1] came to 2.23 fold; in test [2] it was 1.71 fold; in test [3] it was 0.74 fold.

B8: LIBC528116-1 (antibody, IgG1, V domains shown)
VH: QVQLQESGPGLVKPSQTLSLTCTVSGGSIRRGGDYWAWIRQHPGKGLEWIGHVYYTGSTNYNPRFKDRATISVNTYKNQFSLKLSSVTAADTAVYYCARNYDTVTGYSYYYYGMDVWGQGTTVTVSS
VL: DIQLTQSPSTLSASVGDRVTITCRASQSISNYLNWYQQKPGKAPKLLIYAASSLHSGVPSRFSGSGSGTDFTLTISSLQPEDFASYYCQQYQSYPLTFGQGTKVEIKR
notes: also called 37940-4
On to B8, for which the “100 nM huCB1-GFP-SMALP binding (normalized to 10D10N35Y)” value in [6] was 5.8 fold. The binding result in test [9] and in [10] was “no binding” throughout.

B9: LIBC681593-1 (yeast-displayed Fab) (Fab, V domains shown)
VH: QVQLQESGPGLVKPSQTLSLTCTVSGGSIRRGGDYWAWIRQHPGKGLEWIGHIYQTGSTNYNPRFKGRATISVNTYKNQFSLKLSSVTAADTAVYYCARNYDTLTGYSYYYYGMDVWGQGTTVTVSS
VL: DIQMTQSPSSLSASVGDRVTITCRASQSISSYLNWYQQKPGKAPKLLIYNARRLGSGVPSRFSGSGSGTDFTLTISSLQPEDFATYYCQQYRSSPVTFGGGTKVEIKR
Take B9: the “Relative binding fold change” value in test [2] turned out to be 2.37 fold; in test [3], 0.91 fold.

B10: LIBC681594-1 (yeast-displayed Fab) (Fab, V domains shown)
VH: QVQLQESGPGLVKPSQTLSLTCTVSGGSIRRGGDYWAWIRQHPGKGLEWIGHIYQTGSTNYNPRFKGRATISVNTYKNQFSLKLSSVTAADTAVYYCARNYDTLTGYSYYYYGMDVWGQGTTVTVSS
VL: DIQMTQSPSSLSASVGDRVTITCRASQSISSYLNWYQQKPGKAPKLLIYKARKLSSGVPSRFSGSGSGTDFTLTISSLQPEDFATYYCQQFGSMPLTFGGGTKVEIKR
On to B10, for which the “Relative binding fold change” value in test [1] turned out to be 3.56 fold; in test [2] it was 2.57 fold; in [3], 0.83 fold.

B11: LIBC527919-1 (antibody, IgG1, V domains shown)
VH: QVQLQESGPGLVKPSQTLSLTCTVSGGSIRRGGDYWAWIRQHPGKGLEWIGHVYQTGSTAYNPNFKDRATISVNTYKNQFSLKLSSVTAADTAVYYCARNYDALSGYSYYYYGMDVWGQGTTVTVSS
VL: DIQLTQSPSSLSASVGDRVTITCRASQSIISYLNWYQQKPGKAPKLLIYAASSLRSGVPSRFSGSGSGTDFTLTISSLQPEDFATYYCQQYSNYPLTFGGGTRVEIKR
On to B11, for which, in test [4], the “50.0 nM Empty Nanodisc binding (relative to 10D10N35Y)” value was found to be 0.64 fold. Moreover, the “0.200 nM huCB1-Nanodisc binding (relative to 10D10N35Y)” value in test [5] stood at 5.22 fold. The “100 nM huCB1-GFP-SMALP binding (normalized to 10D10N35Y)” value in test [6] is 4.15 fold. For the same molecule, the Fold over mock in test [7] stood at 0.9 fold; in test [8], 1 fold. Besides, the binding result in test [9] and in test [10] was “no binding” throughout.

B12: LIBC681737-1 (yeast-displayed Fab) (Fab, V domains shown)
VH: QVQLQESGPGLVKPSQTLSLTCTVSGGSIRRGGDYWAWIRQHPGKGLEWIGHVYYTGSTNYNPRFKDRATISVNTYKNQFSLKLSSVTAADTAVYYCARNYDTVTGYSYYYYGMDVWGQGTTVTVSS
VL: DIQMTQSPSSLPASVGDRVTITCRASQSISSYLNWYQQKPGKAPKLLIYSARRLASGVPSRFSGSGSGTDFTLTISSLQPEDFATYYCQQYYHPPITFGGGTKVEIKR
notes: Original yeast clone without the LC P12S germline reversion; Monovalent Fab on yeast
For the molecule B12, the “Relative binding fold change” value was 1.89 fold in test [1], 1.94 fold in [2] and 0.73 fold in [3].

B13: LIBC523797-1 (antibody, IgG1, V domains shown)
VH: QVQLQESGPGLVKPSQTLSLTCTVSGGSIRRGGDYWSWIRQHPGKGLEWIGHVYYTGSTKYNPNFKGRATISVNTYKNQFSLKLSSVTAADTAVYYCARDYDILTGYSYYYYGMDVWGQGTTVTVSS
VL: DIVMTQSPLSLPVTPGEPASISCRSSQSLLTSYGINYVDWYLQKPGQSPQLLIYQGSNRASGVPDRFSGSGSGTDFTLKISRVEAEDVGVYYCRQAVGLPRTFGQGTKVEIKR
As for B13, in [11], the “100 nM huCB1-SMALP binding (normalized to 10D10)” value was 7.01 fold. In addition, the binding result in test [9] and in test [10] was “no binding” each time.
